# Assay results reported in PMC4791640.
# Biological target: T1, TON_1525 wild-type (putative transcriptional regulator) (Thermococcus onnurineus NA1) (UniProt B6YTS4)
# T1 sequence: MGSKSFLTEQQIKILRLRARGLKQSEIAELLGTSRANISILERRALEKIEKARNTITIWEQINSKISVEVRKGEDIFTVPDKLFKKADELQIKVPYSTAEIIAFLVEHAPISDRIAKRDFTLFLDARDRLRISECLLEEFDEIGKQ
# Assay: EMSA
# Settings: EMSA: 100 nM DNA, 20 mM Tris-HCl, 200 mM KCl, 1 mM EDTA, 5% glycerol, pH 7.5, 80 C for 10 min; 5% native PAGE
sequence,measurement,value
GAGAGTTTTACTGTCTCTAAATGAAAGGTTCTAATACGGTGGATCGAATAATTTCTTGCGTTTTTATCCGGATCGCCGAACACGATTCCATCTTAAAATCTTTTTGTTTACATTATACGAGGTGATCAACAATGCCAGCTTTTTCCGGTT (double strand) [CODH promoter 150-bp probe],binding,binds
